Measurements taken from IntAct's records for PubMed 31515488.

B1: Tubby-related protein 3 (Homo sapiens), O75386 (parent)
chain: MEASRCRLSPSGDSVFHEEMMKMRQAKLDYQRLLLEKRQRKKRLEPFMVQPNPEARLRRAKPRASDEQTPLVNCHTPHSNVILHGIDGPAAVLKPDEVHAPSVSSSVVEEDAENTVDTASKPGLQERLQKHDISESVNFDEETDGISQSACLERPNSASSQNSTDTGTSGSATAAQPADNLLGDIDDLEDFVYSPAPQGVTVRCRIIRDKRGMDRGLFPTYYMYLEKEENQKIFLLAARKRKKSKTANYLISIDPVDLSREGESYVGKLRSNLMGTKFTVYDRGICPMKGRGLVGAAHTRQELAAISYETNVLGFKGPRKMSVIIPGMTLNHKQIPYQPQNNHDSLLSRWQNRTMENLVELHNKAPVWNSDTQSYVLNFRGRVTQASVKNFQIVHKNDPDYIVMQFGRVADDVFTLDYNYPLCAVQAFGIGLSSFDSKLACE
B2: UBX domain-containing protein 6 (Homo sapiens), Q9BZV1 (parent)
chain: MKKFFQEFKADIKFKSAGPGQKLKESVGEKAHKEKPNQPAPRPPRQGPTNEAQMAAAAALARLEQKQSRAWGPTSQDTIRNQVRKELQAEATVSGSPEAPGTNVVSEPREEGSAHLAVPGVYFTCPLTGATLRKDQRDACIKEAILLHFSTDPVAASIMKIYTFNKDQDRVKLGVDTIAKYLDNIHLHPEEEKYRKIKLQNKVFQERINCLEGTHEFFEAIGFQKVLLPAQDQEDPEEFYVLSETTLAQPQSLERHKEQLLAAEPVRAKLDRQRRVFQPSPLASQFELPGDFFNLTAEEIKREQRLRSEAVERLSVLRTKAMREKEEQRGLRKYNYTLLRVRLPDGCLLQGTFYARERLGAVYGFVREALQSDWLPFELLASGGQKLSEDENLALNECGLVPSALLTFSWDMAVLEDIKAAGAEPDSILKPELLSAIEKLL
partner: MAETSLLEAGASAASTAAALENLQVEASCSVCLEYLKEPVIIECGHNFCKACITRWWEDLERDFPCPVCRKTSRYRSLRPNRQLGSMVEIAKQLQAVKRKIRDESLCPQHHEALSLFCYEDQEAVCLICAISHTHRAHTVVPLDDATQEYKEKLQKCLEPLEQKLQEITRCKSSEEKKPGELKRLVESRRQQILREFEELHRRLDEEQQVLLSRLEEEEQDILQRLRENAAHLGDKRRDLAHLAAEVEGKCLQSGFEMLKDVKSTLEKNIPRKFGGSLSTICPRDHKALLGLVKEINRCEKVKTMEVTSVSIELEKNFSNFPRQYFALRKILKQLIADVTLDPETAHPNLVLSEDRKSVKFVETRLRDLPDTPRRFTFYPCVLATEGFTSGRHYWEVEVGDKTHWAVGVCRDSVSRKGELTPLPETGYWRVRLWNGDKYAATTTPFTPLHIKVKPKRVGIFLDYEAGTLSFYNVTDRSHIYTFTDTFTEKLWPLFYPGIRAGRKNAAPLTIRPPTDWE
B3: Zinc finger protein RFP (Homo sapiens), P14373 (parent)
chain: MASGSVAECLQQETTCPVCLQYFAEPMMLDCGHNICCACLARCWGTAETNVSCPQCRETFPQRHMRPNRHLANVTQLVKQLRTERPSGPGGEMGVCEKHREPLKLYCEEDQMPICVVCDRSREHRGHSVLPLEEAVEGFKEQIQNQLDHLKRVKDLKKRRRAQGEQARAELLSLTQMEREKIVWEFEQLYHSLKEHEYRLLARLEELDLAIYNSINGAITQFSCNISHLSSLIAQLEEKQQQPTRELLQDIGDTLSRAERIRIPEPWITPPDLQEKIHIFAQKCLFLTESLKQFTEKMQSDMEKIQELREAQLYSVDVTLDPDTAYPSLILSDNLRQVRYSYLQQDLPDNPERFNLFPCVLGSPCFIAGRHYWEVEVGDKAKWTIGVCEDSVCRKGGVTSAPQNGFWAVSLWYGKEYWALTSPMTALPLRTPLQRVGIFLDYDAGEVSFYNVTERCHTFTFSHATFCGPVRPYFSLSYSGGKSAAPLIICPMSGIDGFSGHVGNHGHSMETSP
partner: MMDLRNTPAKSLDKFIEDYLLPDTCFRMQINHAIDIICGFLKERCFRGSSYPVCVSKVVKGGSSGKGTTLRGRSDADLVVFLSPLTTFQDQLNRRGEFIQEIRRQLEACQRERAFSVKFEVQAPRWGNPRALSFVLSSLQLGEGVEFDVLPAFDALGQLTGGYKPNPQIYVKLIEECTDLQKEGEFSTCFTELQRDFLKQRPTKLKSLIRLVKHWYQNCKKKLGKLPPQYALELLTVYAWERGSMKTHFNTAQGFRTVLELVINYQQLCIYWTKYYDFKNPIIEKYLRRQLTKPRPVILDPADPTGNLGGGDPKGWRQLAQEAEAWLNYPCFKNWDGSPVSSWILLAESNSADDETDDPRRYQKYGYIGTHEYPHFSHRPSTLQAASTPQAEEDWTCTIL
B4: Splicing factor 45 (Homo sapiens), Q96I25 (parent)
chain: MSLYDDLGVETSDSKTEGWSKNFKLLQSQLQVKKAALTQAKSQRTKQSTVLAPVIDLKRGGSSDDRQIVDTPPHVAAGLKDPVPSGFSAGEVLIPLADEYDPMFPNDYEKVVKRQREERQRQRELERQKEIEEREKRRKDRHEASGFARRPDPDSDEDEDYERERRKRSMGGAAIAPPTSLVEKDKELPRDFPYEEDSRPRSQSSKAAIPPPVYEEQDRPRSPTGPSNSFLANMGGTVAHKIMQKYGFREGQGLGKHEQGLSTALSVEKTSKRGGKIIVGDATEKDASKKSDSNPLTEILKCPTKVVLLRNMVGAGEVDEDLEVETKEECEKYGKVGKCVIFEIPGAPDDEAVRIFLEFERVESAIKAVVDLNGRYFGGRVVKACFYNLDKFRVLDLAEQV
partner: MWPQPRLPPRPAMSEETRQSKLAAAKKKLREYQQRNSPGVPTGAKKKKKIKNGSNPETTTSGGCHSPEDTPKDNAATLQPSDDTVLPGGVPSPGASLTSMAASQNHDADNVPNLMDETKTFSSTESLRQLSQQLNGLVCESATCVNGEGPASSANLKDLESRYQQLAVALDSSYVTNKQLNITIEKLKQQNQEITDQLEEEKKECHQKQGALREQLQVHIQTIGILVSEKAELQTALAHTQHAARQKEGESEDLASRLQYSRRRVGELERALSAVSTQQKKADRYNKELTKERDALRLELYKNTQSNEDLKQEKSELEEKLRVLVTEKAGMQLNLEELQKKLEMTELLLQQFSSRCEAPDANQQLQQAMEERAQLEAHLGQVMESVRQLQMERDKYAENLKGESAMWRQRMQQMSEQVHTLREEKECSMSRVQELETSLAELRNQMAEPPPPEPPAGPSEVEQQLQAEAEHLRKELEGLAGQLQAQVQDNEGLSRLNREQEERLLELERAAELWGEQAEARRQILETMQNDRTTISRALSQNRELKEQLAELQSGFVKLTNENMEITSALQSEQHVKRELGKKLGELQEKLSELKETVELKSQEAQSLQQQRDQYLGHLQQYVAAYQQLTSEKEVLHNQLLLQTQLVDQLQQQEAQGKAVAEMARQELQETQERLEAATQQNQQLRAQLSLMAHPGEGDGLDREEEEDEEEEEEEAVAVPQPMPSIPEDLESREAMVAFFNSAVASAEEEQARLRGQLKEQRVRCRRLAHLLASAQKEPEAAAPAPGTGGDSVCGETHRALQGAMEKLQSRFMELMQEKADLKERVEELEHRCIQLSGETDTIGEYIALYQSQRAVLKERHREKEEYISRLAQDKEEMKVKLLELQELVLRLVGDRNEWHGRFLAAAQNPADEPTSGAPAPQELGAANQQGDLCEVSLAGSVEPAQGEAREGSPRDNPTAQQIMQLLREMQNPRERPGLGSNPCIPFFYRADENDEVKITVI
B5: Ras-related protein Rab-4A (Homo sapiens), P20338 (parent)
chain: MSQTAMSETYDFLFKFLVIGNAGTGKSCLLHQFIEKKFKDDSNHTIGVEFGSKIINVGGKYVKLQIWDTAGQERFRSVTRSYYRGAAGALLVYDITSRETYNALTNWLTDARMLASQNIVIILCGNKKDLDADREVTFLEASRFAQENELMFLETSALTGENVEEAFVQCARKILNKIESGELDPERMGSGIQYGDAALRQLRSPRRAQAPNAQECGC
partner: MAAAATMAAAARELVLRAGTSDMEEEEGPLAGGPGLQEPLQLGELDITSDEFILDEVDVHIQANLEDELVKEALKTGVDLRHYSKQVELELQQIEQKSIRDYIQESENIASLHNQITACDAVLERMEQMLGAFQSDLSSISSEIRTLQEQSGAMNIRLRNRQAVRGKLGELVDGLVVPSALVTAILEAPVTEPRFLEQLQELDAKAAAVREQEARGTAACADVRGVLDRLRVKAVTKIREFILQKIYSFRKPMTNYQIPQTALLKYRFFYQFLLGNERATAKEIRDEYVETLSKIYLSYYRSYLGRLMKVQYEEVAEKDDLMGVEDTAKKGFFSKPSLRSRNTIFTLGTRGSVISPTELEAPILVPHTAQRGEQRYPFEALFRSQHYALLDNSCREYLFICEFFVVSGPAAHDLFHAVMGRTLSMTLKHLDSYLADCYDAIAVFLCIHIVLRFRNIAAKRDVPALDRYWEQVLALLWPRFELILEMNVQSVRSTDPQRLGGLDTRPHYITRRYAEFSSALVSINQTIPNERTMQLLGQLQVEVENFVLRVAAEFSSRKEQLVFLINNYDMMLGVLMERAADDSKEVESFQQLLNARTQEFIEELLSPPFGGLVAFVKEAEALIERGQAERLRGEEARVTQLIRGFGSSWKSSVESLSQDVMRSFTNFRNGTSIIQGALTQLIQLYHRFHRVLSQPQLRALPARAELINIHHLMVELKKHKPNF
B6: Methanethiol oxidase (Homo sapiens), Q13228 (parent)
chain: MATKCGNCGPGYSTPLEAMKGPREEIVYLPCIYRNTGTEAPDYLATVDVDPKSPQYCQVIHRLPMPNLKDELHHSGWNTCSSCFGDSTKSRTKLVLPSLISSRIYVVDVGSEPRAPKLHKVIEPKDIHAKCELAFLHTSHCLASGEVMISSLGDVKGNGKGGFVLLDGETFEVKGTWERPGGAAPLGYDFWYQPRHNVMISTEWAAPNVLRDGFNPADVEAGLYGSHLYVWDWQRHEIVQTLSLKDGLIPLEIRFLHNPDAAQGFVGCALSSTIQRFYKNEGGTWSVEKVIQVPPKKVKGWLLPEMPGLITDILLSLDDRFLYFSNWLHGDLRQYDISDPQRPRLTGQLFLGGSIVKGGPVQVLEDEELKSQPEPLVVKGKRVAGGPQMIQLSLDGKRLYITTSLYSAWDKQFYPDLIREGSVMLQVDVDTVKGGLKLNPNFLVDFGKEPLGPALAHELRYPGGDCSSDIWI
partner: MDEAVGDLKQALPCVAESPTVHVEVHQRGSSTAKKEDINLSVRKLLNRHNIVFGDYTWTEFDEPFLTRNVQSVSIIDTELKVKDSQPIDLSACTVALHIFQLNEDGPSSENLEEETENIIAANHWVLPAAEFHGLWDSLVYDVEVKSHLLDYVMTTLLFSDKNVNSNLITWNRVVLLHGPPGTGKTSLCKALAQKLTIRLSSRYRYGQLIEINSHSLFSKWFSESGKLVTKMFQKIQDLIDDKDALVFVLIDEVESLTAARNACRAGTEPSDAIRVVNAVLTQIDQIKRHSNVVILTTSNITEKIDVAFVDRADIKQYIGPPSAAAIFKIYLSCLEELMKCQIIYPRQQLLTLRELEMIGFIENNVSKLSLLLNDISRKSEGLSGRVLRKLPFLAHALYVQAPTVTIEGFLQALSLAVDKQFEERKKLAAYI

Variants of: B1
Settings: with maga6_human MAGEA6, P43360
maga6_human MAGEA6, P43360, sequence (P43360 whole entry): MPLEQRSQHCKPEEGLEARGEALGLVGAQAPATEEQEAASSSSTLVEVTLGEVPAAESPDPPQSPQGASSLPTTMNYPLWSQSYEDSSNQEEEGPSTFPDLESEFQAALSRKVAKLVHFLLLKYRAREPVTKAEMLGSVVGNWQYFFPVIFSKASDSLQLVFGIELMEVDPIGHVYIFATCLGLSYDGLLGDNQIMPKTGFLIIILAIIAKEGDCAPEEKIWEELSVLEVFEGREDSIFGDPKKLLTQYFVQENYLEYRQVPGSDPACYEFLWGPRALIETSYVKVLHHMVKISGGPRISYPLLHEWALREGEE

effect of a mutation on the interaction | Variant
with no effect | A296E

Variants of: B2
Settings: with tri39_human TRIM39, Q9HCM9

effect of a mutation on the interaction | Variant
with no effect | A361V

Variants of: B3
Settings: with oas1_human OAS1, P00973

effect of a mutation on the interaction | Variant
disrupting interaction strength | N355S

Variants of: B4
Settings: with goga2_human GOLGA2, Q08379

effect of a mutation on the interaction | Variant
with no effect | T224I

Variants of: B5
Settings: with vps52_human VPS52, Q8N1B4

effect of a mutation on the interaction | Variant
with no effect | R207H

Variants of: B6
Settings: with pch2_human TRIP13, Q15645

effect of a mutation on the interaction | Variant
with no effect | R211Q
